Experimental data: paper doi:10.1101/473132

Target: H3K9me3 mononucleosome with one disulfide bridge between H3 I62C and H4 A33C (oxidized) (X. laevis)
Test: fluorescence polarisation

Swi6 (S. pombe HP1 protein), sequence (P40381 whole entry): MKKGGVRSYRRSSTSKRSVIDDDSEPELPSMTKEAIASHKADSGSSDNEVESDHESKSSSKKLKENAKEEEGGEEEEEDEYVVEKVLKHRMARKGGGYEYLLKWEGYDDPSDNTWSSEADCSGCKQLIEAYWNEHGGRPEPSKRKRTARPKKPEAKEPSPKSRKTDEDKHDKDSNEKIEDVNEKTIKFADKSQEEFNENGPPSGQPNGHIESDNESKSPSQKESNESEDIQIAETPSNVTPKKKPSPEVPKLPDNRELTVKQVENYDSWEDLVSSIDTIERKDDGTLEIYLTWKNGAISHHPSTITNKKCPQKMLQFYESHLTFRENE

Kd: 300 nM
Substance: Swi6 (S. pombe HP1 protein) (from UniProt P40381 1-328) (natural protein)
